From FireProtDB (doi:10.1016/s0014-5793(99)00158-1)

B1: Barstar wild type, P11540 (protein)
chain: MKKAVINGEQIRSISDLHQTLKKELALPEYYGENLDALWDCLTGWVEYPLVLEWRQFEQSKQLTENGAESVLQVFREAKAEGCDITIILS
B2: Ribonuclease wild type, P00649 (protein)
chain: MKKISSVFTMFALIAAILFSGFIPQQAYAETPLTQTATNETATIQLTSDVHTLAVINTFDGVADYLIRYKRLPDNYITKSQASALGWVASKGNLAEVAPGKSIGGDVFSNREGRLPSASGRTWREADINYVSGFRNADRLVYSSDWLIYKTTDHYATFTRIR
B3: Ribonuclease wild type, P00648 (protein)
chain: MMKMEGIALKKRLSWISVCLLVLVSAAGMLFSTAAKTETSSHKAHTEAQVINTFDGVADYLQTYHKLPDNYITKSEAQALGWVASKGNLADVAPGKSIGGDIFSNREGKLPGKSGRTWREADINYTSGFRNSDRILYSSDWLIYKTTDHYQTFTKIR

Details: pH 6.2, Thermal, DSC, Na-acetate 10 mM, NaCl 0.05 M, reversible: yes, whole UniProt chain shown

| Protein | Tm (Bacillus amyloliquefaciens) [°C] | unfolding enthalpy (calorimetric) (Bacillus amyloliquefaciens) [kJ/mol] | unfolding enthalpy (van 't Hoff) (Bacillus amyloliquefaciens) [kJ/mol] | Tm (Bacillus intermedius) [°C] | unfolding enthalpy (calorimetric) (Bacillus intermedius) [kJ/mol] | unfolding enthalpy (van 't Hoff) (Bacillus intermedius) [kJ/mol] |
| --- | --- | --- | --- | --- | --- | --- |
| B1 | 73.3 | 222 | 318 |  |  |  |
| B2 |  |  |  | 56.5 | 519 | 527 |
| B3 | 54.5 | 540 | 544 |  |  |  |
